Test results: patent US20190359687A1 (Bayer, published 2019)
Blank lines part the entries; values can stand above or below the binder they belong to.

What was measured:
[1] = molecular target: T1, human glycophorin A on human red blood cells (human, UniProt P02724 20-150); assay: partition to human RBC, human HemA plasma, 120 min
T1 construct: whole, on cells; also called human GPA; huGPA
T1 sequence (looked up): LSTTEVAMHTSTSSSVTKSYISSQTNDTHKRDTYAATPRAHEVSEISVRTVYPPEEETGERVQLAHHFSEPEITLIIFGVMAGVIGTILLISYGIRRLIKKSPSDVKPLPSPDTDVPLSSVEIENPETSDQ

[2] = molecular target: T2, Cynomolgus monkey glycophorin A on Cynomolgus monkey red blood cells (Cynomolgus monkey); assay: partition to Cyno RBC, human HemA plasma, 15 min;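 further: FVIII fusion spiked at 1 IU/mL into RBC suspension at whole-blood density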
T2 construct: whole, on cells; also called Cyno GPA; Cyno RBC

[3] = molecular target: T1, human glycophorin A on human red blood …; assay: partition to human RBC, human HemA plasma, 30 min
[4] = molecular target: T1, human glycophorin A on human red blood …; assay: partition to human RBC, human HemA plasma, 1 min
Protocol: (§1) The supernatant containing plasma, platelets and white blood cells was discarded and the red blood cell pellet was resuspended in 10 pellet volumes of PBS (50 mM Phosphate buffer, pH7.4, 150 mM NaCl). The red blood cells were then pelleted by slow speed centrifugation and the red blood cells re-suspended in 10 volumes of PBS. This washing step was repeated 4 more times and the red blood cells finally resuspended in a volume of plasma from Hemophilia patients with less than 1% of normal levels of FVIII (GeorgeKing Bio-Medical, Overland Park, Kans.) to generate a total volume equal to the initial blood volume such that the RBC density was equal to that of normal whole blood. BDD and RBC targeted FVIII molecules were then spiked into RBC suspension in HemA plasma at 1 IU/mL, and incubated at room temperature for 2-3 hours with gentle rotation. […] An additional control was performed in which BDD or RBC targeted FVIII molecules were added at 11U/ml into the same human hemophilia A plasma and incubated for 5 minutes and 180 mins. These samples were used to determine the input FVIII activity in the presence of plasma which was used to calculate the percentage of the molecule that was bound to RBC. All plasma samples were then assayed together for FVIII activity using the Coatest SP assay (DiaPharma, Columbus, Ohio). The assay was performed following the manufacturer's instructions in a 96-well plate format. […] The plate was incubated at 37° C. for 10 minutes with shaking between each reagent addition. […] The amount of FVIII activity in the plasma reflects the amount of unbound FVIII. The FVIII activity of the same molecule spiked in to Hemophilia A plasma alone (no RBC) and incubated for 5 minutes was normalized to 100%.

[5] = molecular target: T2, Cynomolgus monkey glycophorin A on …; assay: partition to Cyno RBC, human HemA plasma, 120 min;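 further: FVIII fusion spiked at 1 IU/mL into RBC suspension at whole-blood density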
[6] = molecular target: T2, Cynomolgus monkey glycophorin A on …; assay: partition to Cyno RBC, human HemA plasma, 5 min;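 further: FVIII fusion spiked at 1 IU/mL into RBC suspension at whole-blood density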
[7] = molecular target: T1, human glycophorin A on human red blood …; assay: partition to human RBC, human HemA plasma, 60 min
Protocol: as §1

[8] = molecular target: T1, human glycophorin A on human red blood …; assay: partition to human RBC, human HemA plasma, 15 min
Protocol: as §1

[9] = molecular target: T1, human glycophorin A on human red blood …; assay: partition to human RBC, human HemA plasma, 5 min
Protocol: as §1

[10] = molecular target: T1, human glycophorin A on human red blood …; assay: partition to human RBC, human HemA plasma, 120 min; remark: listed apart in the source
Protocol: as §1

[11] = molecular target: T2, Cynomolgus monkey glycophorin A on …; assay: partition to Cyno RBC, human HemA plasma, 30 min;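 further: FVIII fusion spiked at 1 IU/mL into RBC suspension at whole-blood density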
Protocol: (§2) To evaluate partition to cynomolgus monkey or human red blood cells, whole blood was draw from Cynomolgus monkey or normal human volunteers in to anticoagulant with 4% sodium citrate (Sigma, St Louis, Mo.). The red blood cells were purified by layering the whole blood on to ficoll followed by low speed centrifugation. The supernatant containing plasma, platelets and white blood cells was discarded and the red blood cell pellet was resuspended in 10 pellet volumes of PBS (50 mM Phosphate buffer, pH7.4, 150 mM NaCl). The red blood cells were then pelleted by slow speed centrifugation and the red blood cells re-suspended in 10 volumes of PBS. This washing step was repeated 4 more times and the red blood cells finally resuspended in a volume of plasma from Hemophilia patients with less than 1% of normal levels of FVIII (GeorgeKing Bio-Medical, Overland Park, Kans.) to generate a total volume equal to the initial blood volume such that the RBC density was equal to that of normal whole blood. BDD and RBC targeted FVIII molecules were then spiked into RBC suspension in HemA plasma at 1 IU/mL, and incubated at room temperature for 2-3 hours with gentle rotation. […] An additional control was performed in which BDD or RBC targeted FVIII molecules were added at 11U/ml into the same human hemophilia A plasma and incubated for 5 minutes and 180 mins. These samples were used to determine the input FVIII activity in the presence of plasma which was used to calculate the percentage of the molecule that was bound to RBC. All plasma samples were then assayed together for FVIII activity using the Coatest SP assay (DiaPharma, Columbus, Ohio). The assay was performed following the manufacturer's instructions in a 96-well plate format. […] The plate was incubated at 37° C. for 10 minutes with shaking between each reagent addition.

[12] = molecular target: T2, Cynomolgus monkey glycophorin A on …; assay: partition to Cyno RBC, human HemA plasma, 60 min;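 further: FVIII fusion spiked at 1 IU/mL into RBC suspension at whole-blood density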
Protocol: as §2

[13] = molecular target: T2, Cynomolgus monkey glycophorin A on …; assay: partition to Cyno RBC, human HemA plasma, 1 min;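 further: FVIII fusion spiked at 1 IU/mL into RBC suspension at whole-blood density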

percentage bound to human RBC [1]: 71.8%
% bound to Cyno RBC [2]: 40.6%
percentage bound to human RBC [3]: 57.7%
percentage bound to human RBC [4]: 19.3%
% bound to Cyno RBC [5]: 55.1%
% bound to Cyno RBC [6]: 38.2%
percentage bound to human RBC [7]: 66.9%
percentage bound to human RBC [8]: 52%
percentage bound to human RBC [9]: 34.4%
percentage bound to human RBC [10]: 71.8%
% bound to Cyno RBC [11]: 43.2%
% bound to Cyno RBC [12]: 52.9%
% bound to Cyno RBC [13]: 30.9%
B1: TPP-9900 FVIII-scFv fusion protein (other)
chain: DIQLTQSPSFLSASVGDRVTITCRASSSVRYIYWFQQKPGKAPKLLIYATSFRQSGVPSRFSGSGSGTEYTLTISSLQPEDFATYYCHQRNSFPYTFGQGTKLEIKGGGGSGGGGSGGGGSGGGGSEVQLVQSGAEVKKPGASVKVSCKASGYTFTTYAIHWVRQAPGQGLEWMGYINPSSGYTRYNPKFKGRVTMTRDKSTSTAYMELRSLRSDDTAVYYCWTGTRDYWGQGTTVTVSSGGGSGGGGSGLVPRGSGGGSGGGGSGATRRYYLGAVELSWDYMQSDLGELPVDARFPPRVPKSFPFNTSVVYKKTLFVEFTDHLFNIAKPRPPWMGLLGPTIQAEVYDTVVITLKNMASHPVSLHAVGVSYWKASEGAEYDDQTSQREKEDDKVFPGGSHTYVWQVLKENGPMASDPLCLTYSYLSHVDLVKDLNSGLIGALLVCREGSLAKEKTQTLHKFILLFAVFDEGKSWHSETKNSLMQDRDAASARAWPKMHTVNGYVNRSLPGLIGCHRKSVYWHVIGMGTTPEVHSIFLEGHTFLVRNHRQASLEISPITFLTAQTLLMDLGQFLLFCHISSHQHDGMEAYVKVDSCPEEPQLRMKNNEEAEDYDDDLTDSEMDVVRFDDDNSPSFIQIRSVAKKHPKTWVHYIAAEEEDWDYAPLVLAPDDRSYKSQYLNNGPQRIGRKYKKVRFMAYTDETFKTREAIQHESGILGPLLYGEVGDTLLIIFKNQASRPYNIYPHGITDVRPLYSRRLPKGVKHLKDFPILPGEIFKYKWTVTVEDGPTKSDPRCLTRYYSSFVNMERDLASGLIGPLLICYKESVDQRGNQIMSDKRNVILFSVFDENRSWYLTENIQRFLPNPAGVQLEDPEFQASNIMHSINGYVFDSLQLSVCLHEVAYWYILSIGAQTDFLSVFFSGYTFKHKMVYEDTLTLFPFSGETVFMSMENPGLWILGCHNSDFRNRGMTALLKVSSCDKNTGDYYEDSYEDISAYLLSKNNAIEPRSFSQNDENQSPRSFQKKTRHYFIAAVERLWDYGMSSSPHVLRNRAQSGSVPQFKKVVFQEFTDGSFTQPLYRGELNEHLGLLGPYIRAEVEDNIMVTFRNQASRPYSFYSSLISYEEDQRQGAEPRKNFVKPNETKTYFWKVQHHMAPTKDEFDCKAWAYFSDVDLEKDVHSGLIGPLLVCHTNTLNPAHGRQVTVQEFALFFTIFDETKSWYFTENMERNCRAPCNIQMEDPTFKENYRFHAINGYIMDTLPGLVMAQDQRIRWYLLSMGSNENIHSIHFSGHVFTVRKKEEYKMALYNLYPGVFETVEMLPSKAGIWRVECLIGEHLHAGMSTLFLVYSNKCQTPLGMASGHIRDFQITASGQYGQWAPKLARLHYSGSINAWSTKEPFSWIKVDLLAPMIIHGIKTQGARQKFSSLYISQFIIMYSLDGKKWQTYRGNSTGTLMVFFGNVDSSGIKHNIFNPPIIARYIRLHPTHYSIRSTLRMELMGCDLNSCSMPLGMESKAISDAQITASSYFTNMFATWSPSKARLHLQGRSNAWRPQVNNPKEWLQVDFQKTMKVTGVTTQGVKSLLTSMYVKEFLISSSQDGHQWTLFFQNGKVKVFQGNQDSFTPVVNSLDPPLLTRYLRIHPQSWVHQIALRMEVLGCEAQDLYGGGSGGGGSGLVPRGSGGGSGGGGSGDIQLTQSPSFLSASVGDRVTITCRASSSVRYIYWFQQKPGKAPKLLIYATSFRQSGVPSRFSGSGSGTEYTLTISSLQPEDFATYYCHQRNSFPYTFGQGTKLEIKGGGGSGGGGSGGGGSGGGGSEVQLVQSGAEVKKPGASVKVSCKASGYTFTTYAIHWVRQAPGQGLEWMGYINPSSGYTRYNPKFKGRVTMTRDKSTSTAYMELRSLRSDDTAVYYCWTGTRDYWGQGTTVTVSS

percentage bound to human RBC [1]: 95.6%
% bound to Cyno RBC [2]: 87.2%
percentage bound to human RBC [3]: 94.5%
percentage bound to human RBC [4]: 76.5%
% bound to Cyno RBC [5]: 89.1%
% bound to Cyno RBC [6]: 83%
percentage bound to human RBC [7]: 95.2%
percentage bound to human RBC [8]: 94.4%
percentage bound to human RBC [9]: 90.5%
percentage bound to human RBC [10]: 95.6%
% bound to Cyno RBC [11]: 87.8%
% bound to Cyno RBC [12]: 89%
% bound to Cyno RBC [13]: 62.9%
B2: TPP-9424 FVIII-scFv fusion protein (other)
chain: DIQLTQSPSFLSASVGDRVTITCRASSSVRYIYWFQQKPGKAPKLLIYATSFRQSGVPSRFSGSGSGTEYTLTISSLQPEDFATYYCHQRNSFPYTFGQGTKLEIKGGGGSGGGGSGGGGSGGGGSEVQLVQSGAEVKKPGASVKVSCKASGYTFTTYAIHWVRQAPGQGLEWMGYINPSSGYTRYNPKFKGRVTMTRDKSTSTAYMELRSLRSDDTAVYYCWTGTRDYWGQGTTVTVSSGGGSGGGGSGLVPRGSGGGSGGGGSGATRRYYLGAVELSWDYMQSDLGELPVDARFPPRVPKSFPFNTSVVYKKTLFVEFTDHLFNIAKPRPPWMGLLGPTIQAEVYDTVVITLKNMASHPVSLHAVGVSYWKASEGAEYDDQTSQREKEDDKVFPGGSHTYVWQVLKENGPMASDPLCLTYSYLSHVDLVKDLNSGLIGALLVCREGSLAKEKTQTLHKFILLFAVFDEGKSWHSETKNSLMQDRDAASARAWPKMHTVNGYVNRSLPGLIGCHRKSVYWHVIGMGTTPEVHSIFLEGHTFLVRNHRQASLEISPITFLTAQTLLMDLGQFLLFCHISSHQHDGMEAYVKVDSCPEEPQLRMKNNEEAEDYDDDLTDSEMDVVRFDDDNSPSFIQIRSVAKKHPKTWVHYIAAEEEDWDYAPLVLAPDDRSYKSQYLNNGPQRIGRKYKKVRFMAYTDETFKTREAIQHESGILGPLLYGEVGDTLLIIFKNQASRPYNIYPHGITDVRPLYSRRLPKGVKHLKDFPILPGEIFKYKWTVTVEDGPTKSDPRCLTRYYSSFVNMERDLASGLIGPLLICYKESVDQRGNQIMSDKRNVILFSVFDENRSWYLTENIQRFLPNPAGVQLEDPEFQASNIMHSINGYVFDSLQLSVCLHEVAYWYILSIGAQTDFLSVFFSGYTFKHKMVYEDTLTLFPFSGETVFMSMENPGLWILGCHNSDFRNRGMTALLKVSSCDKNTGDYYEDSYEDISAYLLSKNNAIEPRSFSQNDENQSPRSFQKKTRHYFIAAVERLWDYGMSSSPHVLRNRAQSGSVPQFKKVVFQEFTDGSFTQPLYRGELNEHLGLLGPYIRAEVEDNIMVTFRNQASRPYSFYSSLISYEEDQRQGAEPRKNFVKPNETKTYFWKVQHHMAPTKDEFDCKAWAYFSDVDLEKDVHSGLIGPLLVCHTNTLNPAHGRQVTVQEFALFFTIFDETKSWYFTENMERNCRAPCNIQMEDPTFKENYRFHAINGYIMDTLPGLVMAQDQRIRWYLLSMGSNENIHSIHFSGHVFTVRKKEEYKMALYNLYPGVFETVEMLPSKAGIWRVECLIGEHLHAGMSTLFLVYSNKCQTPLGMASGHIRDFQITASGQYGQWAPKLARLHYSGSINAWSTKEPFSWIKVDLLAPMIIHGIKTQGARQKFSSLYISQFIIMYSLDGKKWQTYRGNSTGTLMVFFGNVDSSGIKHNIFNPPIIARYIRLHPTHYSIRSTLRMELMGCDLNSCSMPLGMESKAISDAQITASSYFTNMFATWSPSKARLHLQGRSNAWRPQVNNPKEWLQVDFQKTMKVTGVTTQGVKSLLTSMYVKEFLISSSQDGHQWTLFFQNGKVKVFQGNQDSFTPVVNSLDPPLLTRYLRIHPQSWVHQIALRMEVLGCEAQDLY
notes: also called PPB 7888
